The target in test [1] is T1, IL13RA2 on NCI-H1299 cells (human, UniProt Q14627).
T1 construct: cell-surface protein on NCI-H1299 cells; Cell-borne form of the target; It is kept apart from m1, which is the recombinant His-tagged extracellular domain; The sheet's title names the antibodies 'anti-IL13RA2 IgG' and the cells 'NCI-H1299 cells'; also called IL13Rα2; Interleukin-13 receptor subunit alpha-2
T1 sequence (receptor chain, looked up): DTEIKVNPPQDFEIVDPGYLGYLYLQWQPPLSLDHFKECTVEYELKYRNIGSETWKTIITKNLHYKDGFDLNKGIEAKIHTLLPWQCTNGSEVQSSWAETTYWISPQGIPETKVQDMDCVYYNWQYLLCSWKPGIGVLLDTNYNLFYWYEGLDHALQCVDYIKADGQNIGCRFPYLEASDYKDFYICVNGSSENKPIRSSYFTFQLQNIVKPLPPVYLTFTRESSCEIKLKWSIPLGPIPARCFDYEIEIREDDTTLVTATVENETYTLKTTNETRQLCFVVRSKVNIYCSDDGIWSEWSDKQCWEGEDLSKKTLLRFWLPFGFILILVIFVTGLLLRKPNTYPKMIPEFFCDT
The test can be described thus: flow cytometry on NCI-H1299 cells, Alexa Fluor 488 anti-human IgG detection. On the procedure: NCI-H1299 cells were diluted to 2×10⁶ cells/mL in assay buffer (0.1% BSA/0.1% Sodium Azide in PBS) and 50 μL added per well to a 96-well-plate. The HuCL47 and Clone 47 antibodies were diluted to a top concentration of 40 μg/ml (266 nM) of and diluted 1:4 for 7 dilutions as well as buffer only. 50 μL of the antibody were added to 50 μL of cells to give a concentration of 20 μg/ml. The plate was incubated for 1 hour at room temperature, after which the plate was centrifuged and washed three times. A Goat F(ab′)2 Anti-Human IgG Alexa Fluor 488-conjugated antibody was used (Life Technologies Cat. No. H10120) at a 1 in 250 dilution for detection in assay buffer, 50 μL added to cells and after one hour of incubation at room temperature the cells centrifuged and washed as before, fixed with 7.5% formaldehyde and analysed on the Flow cytometer, with data analysis carried out using FlowJo.
Chimeric clone 47 and HuCL47 were compared in terms of their: binding to NCI-H1299 Cells by standard FACS analysis using NCI-H1299 cells and unmodified purified antibodies. In vitro cytotoxicity analysis was performed on both A375 and NCI-1299 cells, using a pyrollobenzodiazepine dimer (PBD) warhead conjugated to chimeric clone 47 and HuCL47.
Background: In flow cytometry, cells or beads pass a laser one at a time.

In test [2] the target is T2, Recombinant human extracellular domain of IL13RA2-6His (27-343) (human, UniProt Q14627 27-343).
T2 construct: also called Human IL13RA2-6His; human IL13Rα2
T2 sequence: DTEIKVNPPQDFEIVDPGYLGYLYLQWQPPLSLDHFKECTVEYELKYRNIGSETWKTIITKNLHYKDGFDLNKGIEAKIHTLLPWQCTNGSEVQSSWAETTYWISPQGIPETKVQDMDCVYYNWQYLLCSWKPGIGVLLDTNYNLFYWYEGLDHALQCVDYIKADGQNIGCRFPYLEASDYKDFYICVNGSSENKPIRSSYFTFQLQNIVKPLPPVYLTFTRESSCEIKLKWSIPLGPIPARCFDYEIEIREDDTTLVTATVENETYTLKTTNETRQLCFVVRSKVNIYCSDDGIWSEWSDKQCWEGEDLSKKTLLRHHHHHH
The test can be described thus: ELISA on coated IL13RA2-6His; antibody kept 8 days, column headed 'EC50 45° C.'. The procedure:
(§1) Recombinant human extracellular domain of IL13RA2-6His (27-343) was obtained from Sino biological (Ref 10350-H08H). 50 μl of 1 μg/ml of human IL13RA2 in PBS was coated overnight at 4° C. on MaxiSorp ELISA plates. The following morning, the plate is washed with PBS/Tween20 0.02%. Each well has 200 μl of Superblock blocking buffer added and incubated at room temperature for 1 hour in an orbital shaker at 120 rpm. A dilution series of each antibody was prepared, with dilutions of each antibody variant in PBS/Tween20 0.02%. The antibodies are added to blocked antigen coated plates and incubated for 1 hour at room temperature with 120 rpm shaking on an orbital shaker. Plates are then washed 3-times with 200 μl of PBS/Tween20 0.02% and 75 μl of secondary antibody (Mouse anti-human-HRP diluted 1 in 4000 in PBS/Tween20 0.02%) is added to the wells and incubated for 1 hour at room temperature with 120 rpm shaking on an orbital shaker. Plates are then washed 3-times with 200 μl of PBS/Tween20 0.02%. To develop the ELISA, 75 μl of TMB-Turbo substrate is added to the wells and incubated at room temperature with 120 rpm shaking on an orbital shaker till a blue colour develops, the reaction is then stopped with the addition of 75 μl of 0.6 N HCl. Plates are read on the Envision at […] and curves are analysed using GraphPad prism software
(§2) Binding of the variants listed in Table 3 to IL13Rα2 was also assessed by ELISA following incubation at 4° C. or 45° C. for 8 days. […] These binding data also indicate that the humanised variants VHAback/VKA and VHA3/VKA2 have improved stability properties as compared to the chimeric Clone 47.
In general terms: An ELISA detects its analyte on a solid surface through an enzyme-linked reagent.

Test [3] concerns the target T2, Recombinant human extracellular domain …. The test can be described thus: Biacore (SPR), IL13RA2-6His on the sensor, bivalent antibody in solution. From the text:
(§3) Biacore analysis using Human IL13RA2-6His coated sensor was used to calculate apparent affinity constants of the Clone 47 variants. A dilution series of the antibody variants were applied to the IL13RA2 sensor surface for 600 seconds […] to calculate the association constant Ka and buffer (HBS-EP+) was then applied for 1800 seconds to calculate the dissociation constant Kd. The ratio of the two constants will provide an apparent KD as the bivalency of the antibody will affect the binding kinetics.
(§4) Binding affinity of a chimeric (Ch) Clone 47 and select humanised variants to human IL13Rα2 was measured on Biacore.

The target is the same in test [4]. Description: ELISA on coated IL13RA2-6His; antibody kept 8 days, column headed 'EC50 4° C.'. The procedure:
as §1, §2

Test [5] has the same target. The test can be described thus: Biacore (SPR), apparent KD, IL13RA2-6His on the sensor, bivalent antibody in solution.
Source text: as §3, §4
Background: SPR reads the build-up and loss of mass on a sensor chip optically.

The target is the same in test [6]. The test can be described thus: ELISA on plate-coated human IL13RA2-6His, anti-human-HRP detection. On the procedure:
as §1

The source of these data is patent publication US20220033508A1 (ADC THERAPEUTICS, published 2022).

B1: chimeric (Ch) Clone 47 (antibody, V domains shown)
VH: QVQLQQPGAELVRPGASVKLSCKASGYTFSNYLMNWVKQRPEQDLDWIGRIDPYDGDIDYNQNFKDKAILTVDKSSSTAYMQLSSLTSEDSAVYYCARGYGTAYGVDYWGQGTSVTVSS
VL: not shown
notes: Chimeric antibody with the murine Clone 47 variable domains; also called chimeric Clone 47
What is called EC50 (read off the curve) is the concentration needed to bring the measured effect to its halfway point. Broadly, the EC50 is the concentration needed to bring the measured effect to its halfway point. Usually koff stands for a measure of how fast the partners let go of each other. For orientation: kon means a measure of how fast the partners come together. As to B1, the “EC50 (read off the curve)” value is ~0.04 µg/mL in test [1] and ~0.04 nM in test [6]. For the same molecule, the concentration giving a half-maximal response (EC50) in test [2] stood at 0.0168 µg/mL; in test [4], 0.0777 µg/mL. In addition, the koff in test [3] came out at 6.58e-05 s⁻¹. The kon in test [3] was 125000 M⁻¹ s⁻¹. Besides, the Kd in test [5] is 0.53 nM.

B2: Clone 47 VHA / Clone 47 VKA (HuCL47) (antibody, V domains shown)
VH: QVQLVQSGAEVKKPGASVKVSCKASGYTFSNYLMNWVRQAPGQGLEWMGRIDPYDGDIDYNQNFKDRVTITRDTSASTAYMELSSLRSEDTAVYYCARGYGTAYGVDYWGQGTSVTVSS
VL: EIVLTQSPATLSLSPGERATLSCRASESVDNYGISFMNWYQQKPGQAPRLLIYAASRQGSGIPDRFSGSGSGTDFTLTISRLEPEDFAVYYCQQSKEVPWTFGGGTKLEIK
notes: Expressed as IgG in Expi293 cells; also called VHA/VKA; VHANKA
With B2, the entries for the “EC50 (read off the curve)” value in test [1] and in test [6] were ~0.04 µg/mL and ~0.05 nM, respectively. The figures for the EC50 in test [2] and in test [4] were 0.0184 µg/mL and 0.0178 µg/mL, respectively. In addition, in test [3], the koff turned out to be 1.12e-05 s⁻¹. Also, the kon in test [3] was determined as 112000 M⁻¹ s⁻¹. Further, the Kd in test [5] turned out to be 0.1 nM.

B3: Clone 47 VHA / Clone 47 VKA1 (antibody, V domains shown)
VH: QVQLVQSGAEVKKPGASVKVSCKASGYTFSNYLMNWVRQAPGQGLEWMGRIDPYDGDIDYNQNFKDRVTITRDTSASTAYMELSSLRSEDTAVYYCARGYGTAYGVDYWGQGTSVTVSS
VL: EIVLTQSPATLSLSPGERATLSCRASESVDNYGISFMNWFQQKPGQAPRLLIYAASRQGSGIPDRFSGSGSGTDFTLTISRLEPEDFAVYYCQQSKEVPWTFGGGTKLEIK
notes: Expressed as IgG in Expi293 cells; also called VHA/VKA1
B3: the EC50 in test [2] turned out to be 0.0123 µg/mL. For the same molecule, in test [3], the off-rate constant (koff) is 2.65e-05 s⁻¹ and the kon came out at 124000 M⁻¹ s⁻¹. The EC50 in test [4] is 0.0581 µg/mL. The Kd in test [5] is 0.21 nM.

B4: Clone 47 VHAback / Clone 47 VKA (antibody, V domains shown)
VH: QVQLVQSGAEVKKPGASVKVSCKASGYTFSNYLMNWVRQAPGQGLEWIGRIDPYDGDIDYNQNFKDRATLTVDKSASTAYMELSSLRSEDTAVYYCARGYGTAYGVDYWGQGTSVTVSS
VL: EIVLTQSPATLSLSPGERATLSCRASESVDNYGISFMNWYQQKPGQAPRLLIYAASRQGSGIPDRFSGSGSGTDFTLTISRLEPEDFAVYYCQQSKEVPWTFGGGTKLEIK
notes: Expressed as IgG in Expi293 cells; also called VHAback/VKA
B4: the EC50 in test [2] was determined as 0.0164 µg/mL. Moreover, in test [3], the koff amounted to 5.3e-06 s⁻¹ and the kon was 115000 M⁻¹ s⁻¹. Also, in test [4], the EC50 was found to be 0.0456 µg/mL. Further, in test [5], the Kd is 0.05 nM.

B5: Clone 47 VHA / Clone 47 VKA2 (antibody, V domains shown)
VH: QVQLVQSGAEVKKPGASVKVSCKASGYTFSNYLMNWVRQAPGQGLEWMGRIDPYDGDIDYNQNFKDRVTITRDTSASTAYMELSSLRSEDTAVYYCARGYGTAYGVDYWGQGTSVTVSS
VL: EIVLTQSPATLSLSPGERATLSCRASESVDNYGISFMNWYQQKPGQAPRLLIYAASRQGSGIPDRFSGSGSGTDFTLTISRLEPEDFAVYFCQQSKEVPWTFGGGTKLEIK
notes: Expressed as IgG in Expi293 cells; also called VHA/VKA2
On to B5, for which the EC50 in test [2] was 0.0204 µg/mL. In test [3], the off-rate (koff) is 8.2e-06 s⁻¹ and the kon is 131000 M⁻¹ s⁻¹. Also, in test [4], the EC50 is 0.148 µg/mL. Further, the Kd in test [5] amounted to 0.06 nM.

B6: Clone 47 VHAback / Clone 47 VKA1 (antibody, V domains shown)
VH: QVQLVQSGAEVKKPGASVKVSCKASGYTFSNYLMNWVRQAPGQGLEWIGRIDPYDGDIDYNQNFKDRATLTVDKSASTAYMELSSLRSEDTAVYYCARGYGTAYGVDYWGQGTSVTVSS
VL: EIVLTQSPATLSLSPGERATLSCRASESVDNYGISFMNWFQQKPGQAPRLLIYAASRQGSGIPDRFSGSGSGTDFTLTISRLEPEDFAVYYCQQSKEVPWTFGGGTKLEIK
notes: Expressed as IgG in Expi293 cells; also called VHAback/VKA1
For the molecule B6, the results for the EC50 in test [2] and in test [4] were 0.0128 µg/mL and 1.01 µg/mL, respectively.

B7: Clone 47 VHA3 / Clone 47 VKA2 (antibody, V domains shown)
VH: QVQLVQSGAEVKKPGASVKVSCKASGYTFSNYLMNWVRQAPGQGLEWMGRIDPYDGDIDYNQNFKDRVTITRDKSASTAYMELSSLRSEDTAVYYCARGYGTAYGVDYWGQGTSVTVSS
VL: EIVLTQSPATLSLSPGERATLSCRASESVDNYGISFMNWYQQKPGQAPRLLIYAASRQGSGIPDRFSGSGSGTDFTLTISRLEPEDFAVYFCQQSKEVPWTFGGGTKLEIK
notes: Expressed as IgG in Expi293 cells; also called VHA3/VKA2
Consider B7, for which the figures for the EC50 in test [2] and in test [4] were 0.0123 µg/mL and 0.0258 µg/mL, respectively.
